{"source": "paper PMC10079538", "about": "“Unusual PDGFRB fusion reveals novel mechanism of kinase activation in Ph-like B-ALL” (Leukemia, 2023)", "proteins": {"B1": {"name": "recombinant truncated PDGFRB (PDGFRB^584-1106) (domain or fragment, human, UniProt P09619 584-1106, looked up)", "chain": "PMQLPYDSTWELPRDQLVLGRTLGSGAFGQVVEATAHGLSHSQATMKVAVKMLKSTARSSEKQALMSELKIMSHLGPHLNVVNLLGACTKGGPIYIITEYCRYGDLVDYLHRNKHTFLQHHSDKRRPPSAELYSNALPVGLPLPSHVSLTGESDGGYMDMSKDESVDYVPMLDMKGDVKYADIESSNYMAPYDNYVPSAPERTCRATLINESPVLSYMDLVGFSYQVANGMEFLASKNCVHRDLAARNVLICEGKLVKICDFGLARDIMRDSNYISKGSTFLPLKWMAPESIFNSLYTTLSDVWSFGILLWEIFTLGGTPYPELPMNEQFYNAIKRGYRMAQPAHASDEIYEIMQKCWEEKFEIRPPFSQLVLLLERLLGEGYKKKYQQVDEEFLRSDHPAILRSQARLPGFHGLRSPLDTSSVLYTAVQPNEGDNDYIIPLPDPKPEVADEGPLEGSPSLASSTLNEVNTSSTISCDSPLEPQDEPEPEPQLELQVEPEPELEQLPDSGCPAPRAEAEDSFL", "notes": "PDGFRB, human, residues 584-1106; truncated form encoded by the CD74^intr::PDGFRB fusion, lacks the juxtamembrane region; methods are in the supplementary file; also called truncated PDGFRB^584-1106; source: insect cells, expressed and purified"}}, "target": "the molecule itself", "experiment": "SEC; elution of the recombinant protein purified from insect cells; molecular weight from the elution", "data": [{"protein": "B1", "values": [{"measurement": "stoichiometry N", "result": 2}]}]}
